This note sets out measurements from paper PMC6755732, “Structural, Biochemical, and In Vivo Characterization of MtrR-Mediated Resistance to Innate Antimicrobials by the Human Pathogen Neisseria gonorrhoeae”.

The target of data set [1] is T1, MtrR (Neisseria gonorrhoeae, UniProt P39897 1-210). As to the kind of experiment: fluorescence polarization; 1 mM glycocholate; FP: 20 mM Tris-HCl pH 8.0, 100 mM NaCl, 2.5% glycerol, 1 nM DNA, temperature not stated; EMSA: 20 mM Tris pH 8.0, 200 mM NaCl, 10% glycerol, 1 mM TCEP, 1 ug poly(dI-dC), room temperature, 2% agarose TAE. The conditions noted are these: protein: recombinant; tags: His6 removed by thrombin; chain copies: 2.

Data set [2] has as its target T1, MtrR. The data set can be described thus: fluorescence polarization; no bile salt; FP: 20 mM Tris-HCl pH 8.0, 100 mM NaCl, 2.5% glycerol, 1 nM DNA, temperature not stated; EMSA: 20 mM Tris pH 8.0, 200 mM NaCl, 10% glycerol, 1 mM TCEP, 1 ug poly(dI-dC), room temperature, 2% agarose TAE. Conditions: protein: recombinant; tags: His6 removed by thrombin; chain copies: 2.

Data set [3] has as its target T1, MtrR. As to the kind of experiment: fluorescence polarization; no CAPS; FP: 20 mM Tris-HCl pH 8.0, 100 mM NaCl, 2.5% glycerol, 1 nM DNA, temperature not stated; EMSA: 20 mM Tris pH 8.0, 200 mM NaCl, 10% glycerol, 1 mM TCEP, 1 ug poly(dI-dC), room temperature, 2% agarose TAE. The conditions noted are these: protein: recombinant; tags: His6 removed by thrombin; chain copies: 2.

Data set [4] has as its target T1, MtrR. As to the kind of experiment: fluorescence polarization; 1 mM taurocholate; FP: 20 mM Tris-HCl pH 8.0, 100 mM NaCl, 2.5% glycerol, 1 nM DNA, temperature not stated; EMSA: 20 mM Tris pH 8.0, 200 mM NaCl, 10% glycerol, 1 mM TCEP, 1 ug poly(dI-dC), room temperature, 2% agarose TAE. The conditions noted are these: protein: recombinant; tags: His6 removed by thrombin; chain copies: 2.

In another data set the target is MtrR(R176E) (Neisseria gonorrhoeae, UniProt P39897 1-210, R176E). As to the kind of experiment: fluorescence polarization; no bile salt; nM Kd within 5-fold of WT (137, 184 or 187 nM, assignment unclear); FP: 20 mM Tris-HCl pH 8.0, 100 mM NaCl, 2.5% glycerol, 1 nM DNA, temperature not stated; EMSA: 20 mM Tris pH 8.0, 200 mM NaCl, 10% glycerol, 1 mM TCEP, 1 ug poly(dI-dC), room temperature, 2% agarose TAE. Conditions: protein: recombinant; tags: N-terminal His6 removed by TEV; chain copies: 2.

A further data set deals with MtrR(W136L) (Neisseria gonorrhoeae, UniProt P39897 1-210, W136L). The description is as above. Conditions: protein: recombinant; tags: N-terminal His6 removed by TEV; chain copies: 2.
The target in another data set is MtrR(R176A) (Neisseria gonorrhoeae, UniProt P39897 1-210, R176A). The data set is described as above. The conditions noted are these: protein: recombinant; tags: N-terminal His6 removed by TEV; chain copies: 2.

B1: mtrC (mtrCDE) operator 27-mer, fluorescein (dsDNA)
DNA 1: TTTTTATCCGTGCAATCGTGTATGTAT
DNA 2: ATACATACACGATTGCACGGATAAAAA
In the case of B1, the Kd is 21 ± 0.8 nM in the data set with MtrR [1], 18 ± 3 nM with MtrR [2], about 3.6 nM in the data set with MtrR [3] and 20 ± 6 nM in the data set with MtrR [4]. Moreover, the binding result with MtrR(R176E), with MtrR(W136L) and in the data set with MtrR(R176A) was “binds” throughout.
